{
  "source": "paper PMC11852808",
  "settings": "acetylation at K3",
  "data": [
    {"substance": "protein VII: K3Q acetyl mimic", "values": [
      {"measurement": "localisation_or_trafficking", "result": "no change"}
    ]}
  ]
}
